The results in this text go back to publication PMC11677658.

As a reminder, the stoichiometry N is a count of units in the complex or per binding partner.

This experiment concerns the target Aspergillus sydowii UBOCC-A-108050 SULT (Aspergillus sydowii UBOCC-A-108050). Briefly: SEC; calibrated size exclusion chromatography of the purified recombinant protein alone (self-association).

For the substance “Aspergillus sydowii UBOCC-A-108050 SULT (enzyme)”, the stoichiometry N was found to be 2.
